Results as given in the DeepSol protein solubility set.

Assay: soluble on expression in E. coli; label from the status in PepcDB or PDB records

Sequence	soluble on expression in E. coli
MGSDKIHHHHHHMTKFSVYIGIDWANDKHDVCVQVANSSARKFEVIKHSPKSINEWITSLHKQYKGQIAVAIELSKGPIVYALQKFDFITIHPVNTSMLAQYRKAFSPSGAKDDPTDAELALDLMLRYPNKIKALKMDSESVRKLTYLVEQRRKLVDDKRRFSNRLIITLKEYYPHLLDWFSHRGSGIFCDFITRWPNLQKLKRARADTLKKFFGSYPGRTAAYSVKRIQSISEAEPLTLDNAVIESHQLLAVALANQLLVAVKVIKVFDREISELFNALPDAELYKSLPGTGPCLAPRLLVAIGENRSRFNSASEIQMYAVIAPVTVRSGQKSWIHWRYQCSKFTRQSFIEWATKSIRQSYWAEIYYQQQREKGNTHQAAVRSLAFKWIRIIYRCWKTKEPYNEAKYLKALSDRNSPLLFKEKAC	not soluble
MYEIIRMGVRNMLITFHSKVAAEVLMRTDDAAPLLRAAGKSFRDAIPERGVFTADQLQSAITGLERAIAAADRSPPDDDEPHPDKEPVHPIELAVGLHQRAFPLLDMMRKTAAAGADLTWEVSRGW	not soluble
MKNDEVLLSIKNLKQYFNAGKKNEVRAIENISFDIYKGETLGLVGESGCGKSTTGKSIIKLNDITSGEILYEGIDIQKIRKRKDLLKFNKKIQMIFQDPYASLNPRLKVMDIVAEGIDIHHLATDKRDRKKRVYDLLETVGLSKEHANRYPHEFSGGQRQRIGIARVLAVEPEFIIADEPISALDVSIQAQVVNLLLKLQRERGITFLFIAHDLSMVKYISDRIAVMHFGKIVEIGPAEEIYQNPLHDYTKSLLSAIPQPDPESERSRKRFSYIDDEANNHLRQLHEIRPNHFVFSTEEEAAQLRENKLVTQN	not soluble
MSGGSDQVKNMIYINGNRRGHCFITSGITFKEFASNIPSPLHQVLLLKHNFEWTDFHYHTLFEYVEEENIHKLIQAEIDEFDEFCWVDFDDASDLDELEPKEIAELLYLAHKKEPLARTFFPLLKNRFVYFSHDDGWYNKVYYRRIADFVGMLSKVIPYKLGAFGKKRFSFFQKSKIFPAISKELIMGLIPLMEDGLYIDLAGKIESRRGLEIPVYVVGSYESTDEVLDNIDELKEEATETGWLIFDKKEQEWQWVVD	not soluble
MRDPLCDESYLLKTIESNRKFISKRKEKIIGLKADIENGIQRYPRDNQSIIYITFSQMFMYGMNMLLAKYSLGNHPDTMIDDYLDNITYLENCGEEEAGYINLLWMVGLGILLEMDKEVLKRLARVIERQRIEDALMDFLLKACDIGWNHSTTKYEKKNPYEKTVEIIKIALHDKDKEAASKRLEKYMEKEWFKGHYDFGWRNAHKEPGYYGFWSFDTAALAKILGLDDSALKDNNHYPYDLAHYKNGMTFDLSWYSEPREEEVREETVVYGIPGNPLLERIIPGRFHSFVNEIINDYKTLPDEEFWKKYNLKEIWFDVEEYKEDNKDKNLLGTIIVFMLVDKDYILQLDYKEELIDYIENIHNYWPKEEVKLISFELDNDQQYYAYVPKDAEAGSLYEVKVTEVEKIEEV	not soluble
GPGSMDTIEFLHTVGKLKETMRTGWVETGVHQPESVSDHMYRAALLCMMCPDSSLNRDRLVRMALCHDVGESIIGDISPKMGVPAAEKHKREKEAILHLRGLLPHDSPLEKELQELWEEYETQGTPEARFLRDIDLLEMVTQAHAYEKTHPELNFDSFYVSGEKIKHPWVRSIYDNLVSTRPSRKS	soluble
MKAMRYEQISENAFKGKIQVYLEQILGDASLILKTLHEKDQCLLCELDDLGHVFQDMQGIASSFYLQSYIEEFTPAFIELAKAIKALSEHKHGALIVIERADPVERFIQKGTSLHAEISSSLIESIFFPGNPLHDGALLVRENKLVSASNVLPLTTKEVDIHLGTRHLAALGMSGYTDALVLVVSEETGKMSFAKDGVLYPLISPRT	not soluble
MTATSNSAPLAGGSLSSSATAQPPQPPPGHQQQHPLPQIYDSQMQYYYGSSMPNQPIPTYTAQNGAPQQFGTPPYYQDANGQFGQVPAQQQMMTAGHPYFYMAQPQQGGQHVAQSGQPQIFYYQQPLGQMAQQAAPMYFHPMQAASTPMLSEQMSMMPQIQSTNPQQSEQLRKSGAQISTTRTVPLTSSTPLPTSREYETVQRDRNRNSQSRYQCPIEHDDLPIDEISKITIDNHNDDTMSAEKENRFNKNRVEKLGRRGFAKPEVDSQLPHNFKTRLCMTHAAGINPCALGARCKFAHGLKELRASDIPTRYPNNKYKTKLCKNFARGGSGVCPYGLRCEFVHPSDTEFQNIPPYQRKMVEEHDSIPEDYVVARYQPRFMHTSGKATTPTKVTLKQRNVAGSMMCLSNTGRDLEAGGDFNHPEINENDLPPHLRRIRRGNPPVTRSRPSFSTKWTSVENLGLRGHY	not soluble
MQVSVTGDFVGHIQELIRTEVLPYQWEALNDQIAGAEPSHCLDNFRAAAEKKGHIQFHGQPFQDSDIYKWIEAAAYTLAWHPDSDLEAKADQAIELICGAQQPDGYLNTYFILTGAQRWTHLLDGHELYCAGHLMEAAVAYYHATGKDKLLKAAQKLADHIADVFGTSPGKIPGYPGHPEVELALIRLFEATGNIKYQQLAQYFICQRGASPSIFRKEADQFGWDWADSPFQFQFYQAGKPILEQTELEGHAVRALYLCCGIADVAARTQDAALLETCRRLWEDLTQTKLYITGGAGSSVYGEAFTFAYDLPNDTAYAETCAAVAVCFFAQRMMKISPSGAYGDVLEQALYNGVLSGMALDGKSFFYVNPLEVVPEACQKDQRKKHVKPIRQKWFACACCPPNLARLFASIGGYLHFIRAETLYTNLYVTSTSEFTFQGLPIKLHMDSAYPFDEKIHISLSLPRPMEFSYAVRIPAWCADYHVLINGKICAGTLKDGFLYLHRCWRDGDEVELTLSMPVRVVRANSLVRENIGKSAICRGPIVYCMEQLEHHHHHH	not soluble
AIAGCASAKHVSTVQNEDDAQNGKNYQNGDAFCDEYRIKPVEEVKYMKNGEEEEQKILSKNQENLVSCLEEKSATHTARSKSNTEAAGAGHPYRINIHISESQQEFFRMLDEKIEKGRDYCSEEEDIT	soluble
MESEFLYDLLQLPKEVAQPTEEELPRGGKKKYLSPNSKRNPKFEELQKVLMEWINTTLLPEHIVVRSLEEDMFDGLILHHLFQKLASLKLEVEEISLTSASQRHKLGVILEAVNQNLQVEEKQAKWSVETIFNKDLLATLHLLVALAKRFQPDLPLPDNVQVEVIHIESTKTGLKSDKQVEQLTECKSHKDQPLQDAFDELFKLAPEKVHAVQEAIVSFVNQKLERLGLSVQSLDTQFADGVILLLLIGQLEGFFLHLTEFYLTPSSPTEMLHNVTLALDLLKDEGLFSYPVNPEDIVNKDAKSTLRILYSLFQKHSLRAEGGGAHHATPN	soluble
MGHHHHHHSHMWKDFIDHISSLLHSVEVEVSYFAAGIIAHLISRGEQAWTLSRSQRNSLLDDLHSAILKWPTPECEMVAYRSFNPFFPLLGCFTTPGVQLWAVCAMQHVCSKNPSRYCSMLIEEGGLQHLYNIKDHEHTDPHVQQIAVAILDSLEKHIVRHGRPPPCKKQPQARLN	not soluble
MNREKLMKMANTVRTGGKGTVRRKKKAVHKTTTTDDKRLQSTLKRVGVNSIPAIEEVNIFKDDVVIQFINPKVQASIAANTWVVSGTPQTKKLQDILPQIISQLGPDNLDNLKKLAEQFQKQAPGAGDVPATIQEEDDDDDVPDLVVGETFETPATEEAPKAAAS	soluble
MSNVQTSAEREIVDLSHLAFDCGMLGRLKTVSWTPVIAGDSFELDAVGALRLSPLRRGLAIDSKVDFFTFYIPHRHVYGDQWIQFMRDGVNAQPLPSVTCNRYPDHAGYVGTIVPANNRIPKFLHQSYLNIYNNYFRAPWMPERTEANPSNLNEDDARYGFRCCHLKNIWSAPLPPETKLAEEMGIESNSIDIMGLQAAYAQLHTEQERTYFMQRYRDVISSFGGSTSYDADNRPLLVMHTDFWASGYDVDGTDQSSLGQFSGRVQQTFKHSVPRFFVPEHGVMMTLALIRFPPISPLEHHYLAGKSQLTYTDLAGDPALIGNLPPREISYRDLFRDGRSGIKIKVAESIWYRTHPDYVNFKYHDLHGFPFLDDAPGTSTGDNLQEAILVRHQDYDACFQSQQLLQWNKQARYNVSVYRHMPTVRDSIMTS	soluble
MNLLQHIAQSRQQLRKSELKVADHVLNDPASVMHSSMAELAHGVGVSEPTIVRFCRAIGCSGFQDLKLKLAQSLAAGASFGQFSIHESDSVADFSLKIFDTTLHSLMEVREHLDTHALERAIAAIAHAQRVEFYGFGASGAVASDAQHKFFRLLLSAAAYSDPHMQAMSAVTLKPSDVAICISQSGRSKDLLITANLVREAGATLITLCPSQTPLADLATVNLAIDVHEDTDIYTPLTSRIAHLVVIDVLAMGVAMARGPDLVNHLKSVKRSLRSLRLSPKVMKNQEERGEPS	not soluble
GRDGNNLNNPVLLLDTFDFGPREDNWFFYPGGNIGLYCPYSSKGAPEEDSAMVFVSNEVGEHSITTRDLSVNENTIIQFEINVGCSTDSSSADPVRLEFSRDFGATWHLLLPLCYHSSSLVSSLCSTEHHPSSTYYAGTTQGWRREVVHFGKLHLAGSVRFRWYQGFYPAGSQPVTWAIDNVYIGPQCEEMCYGHGSCINGTKCICDPGYSGPTCKISTKNPDFLKDDFEGQLESDRFLLMSGGKPSRKCGILSSGNNLFFNEDGLRMLVTRDLDLSHARFVQFFMRLGCGKGVPDPRSQPVLLQYSLNGGLSWSLLQEFLFSNSSNVGRYIALEMPLKARSGSTRLRWWQPSENGHFYSPWVIDQILIGGNISGNTVLEDDFSTLDSRKWLLHPGGTKMPVCGSTGDALVFIEKASTRYVVTTDIAVNEDSFLQIDFAASCSVTDSCYAIELEYSVDLGLSWHPLVRDCLPTNVECSRYHLQRILVSDTFNKWTRITLPLPSYTRSQATRFRWHQPAPFDKQQTWAIDNVYIGDGCLDMCSGHGRCVQGSCVCDEQWGGLYCDEPETSLPTQLKDNFNRAPSNQNWLTVSGGKLSTVCGAVASGLALHFSGGCSRLLVTVDLNLTNAEFIQFYFMYGCLITPSNRNQGVLLEYSVNGGITWNLLMEIFYDQYSKPGFVNILLPPDAKEIATRFRWWQPRHDGLDQNDWAIDNVLISRLENLYFQ	soluble
MPKDELPNHNCIKHLRSVVQQQQSRIAELEKTRAEHKHQLAEQKRDIQLLKAYMRAIRSVNPNLQNLEETIEYNEILEWVNSLQPARVTRWGGMISTPDAVLQAVIKRSLVESGCPASIVNELIENAHERSWPQGLATLETRQMNRRYYENYVAKRIPGKQAVVVMACENQHMGDDMVQEPGLVMIFAHGVEEI	not soluble
MEKFGKPLEENGKEATATVIGLGKLGSEELNYYSDVDLMFIHSTDKGKAGNLSLNDFFQRLFQKVVKLLNAQTPEGVPYFVDLDLRPFGKSGPLSMPLRSAELYYESYGRIWERFALLRARYCAGDEELAQKFMKEVVRPFVFGPADYKLVEEIRLMKKRIEAEAKKKFIKGYNVKTGEGGIREVEFSVQSLVILLGSKTPILRESNTYRAIYKLMQKGVFSSEEAQKLEESYTFLRKLEHRIQLRECLQTQVLKESDKETFAKFLGFESKEEFEEKLKETRAFVKSVFSQILPEREEEELDELQEAVIMEDEESGTQILKQKGFKSTRQIFTLLSEPLYGSMNVHFTEKEKKLYIKLIPKLVNLALSSQNPDQSIKNFFKFFFNPTGRRVILSEHKREEFLEKLFTVFSVSDYLSHLVARNPDLVEDALTLYRDFPKFEDFKREFEKYRETLNLSPENLYRRFKTVWEVRIGLVYLLKEEDRYEKLKKLYISLSTLADFILSNLWKDITLEENTALLYALGKLGSRELNFNSDLDLVFAVKSLEEKEKVHEKAKELVRFLTAHTTEGYLYSVDFRLRPMGSKGELVPTFDFYKKYFEKEARTWERLAWTRARYITGNEEFKEEFERLIENFLFEKPWGEKEKREVYEMRMKLQSVAKRGRGVVDLKLGEGGIVDGEFLVQYLLIKEKIRETSMIRGFEVLMEKYPRLKEAYDSFMFLRLVETHLRLSKERGTSVLSEQDIPKVALSLGMKPEELKESIKEKMKKMREVFNEFLAQ	not soluble
